Data from patent US20050272649A1, “Conjoint administration of morphogens and ACE inhibitors in treatment of chronic renal failure” (priority 2002, published 2005).

Assay: solubility of mature OP-1 with casein
Type: physicochemical
Details: addition of 0.2% casein; mature active form of OP-1
Excerpt: Association of the mature morphogen dimer with a morphogen pro domain results in the pro form of the morphogen which typically is more soluble in physiological solutions than the corresponding mature form. In fact, endogenous morphogens are thought to be transported (e.g., secreted and circulated) in the mammalian body in this form. This soluble form of the protein can be obtained from culture medium of morphogen-secreting mammalian cells, e.g., cells transfected with nucleic acid encoding and competent to express the morphogen. Alternatively, a soluble species can be formulated by complexing the mature, morphogenically active polypeptide dimer (or an active fragment thereof) with a morphogen pro domain polypeptide or a solubility-enhancing fragment thereof. Solubility-enhancing pro domain fragments can be any N-terminal, C-terminal or internal fragment of the pro region of a member of the morphogen family that complexes with the mature polypeptide dimer to enhance stability and/or dissolubility of the resulting noncovalent or covalent complex. Typically, useful fragments are those cleaved at the proteolytic site Arg-Xaa-Xaa-Arg (SEQ ID NO: 30). A detailed description of soluble complex forms of morphogenic proteins, including how to make, test and use them, is described in WO 94/03600 (PCT US 93/07189). […]

B1: OP-1: osteogenic protein-1 (OP-1, also known as BMP-7), morphogen of the OP/BMP family; OP-1 used interchangeably with sBMP-7 (protein)
chain: STGSKQRSQNRSKTPKNQEALRMANVAENSSSDQRQACKKHELYVSFRDLGWQDWIIAPEGYAAYYCEGECAFPLNSYMNATNHAIVQTLVHFINPETVPKPCCAPTQLNAISVLYFDDSSNVILKKYRNMVVRACGCH
  increase in solubility: 80%
